How the values were obtained:
human CD123 [1] = target: T1, human CD123 (human, UniProt P26951 19-378); assay: competition with 5 nM AlexaFluor-488 m7G3, flow cytometry on Molm-13 AML cells
T1 construct: whole, on cells; also called IL-3R alpha; IL3R-alpha
Protocol: Cells were centrifuged, washed 3 times with PBS, and resuspended in 125 μL of a PBS+1% BSA solution. Fluorescence was analyzed using a flow cytometer, and the percent of saturated fluorescent signal was used to determine percent labeled 7G3 mAb bound. The EC50 was extrapolated by fitting the data to a sigmoidal dose-response curve with variable slope.

human CD123 [2] = target: T1, human CD123; assay: saturation binding of AlexaFluor-488 labeled mAb, flow cytometry on HEK293F cells expressing human CD123; apparent Kd
Protocol: (§1) One hundred thousand CD123-positive cells (HEK-293F cells transfected to express human or cynomologus CD123) were transferred to 96-well plates. […] Cells were pelleted by centrifugation, washed 3 times with a PBS+1% BSA solution, and resuspended in 125 μL of PBS+1% BSA. Fluorescence was analyzed using a flow cytometer, and the percent of saturated fluorescent signal was used to determine percent bound and to subsequently calculate apparent Kd.

cynomolgus CD123 = target: T2, cynomolgus CD123 (cynomolgus); assay: saturation binding of AlexaFluor-488 labeled mAb, flow cytometry on HEK293F cells expressing cyno CD123; apparent Kd
T2 construct: whole, on cells; Expressed on transfected HEK-293F cells; also called cyno CD123
Protocol: as §1

human CD123 [3] = target: T1, human CD123; assay: cell-based or functional assay
human CD123 [4] = target: T1, human CD123; assay: cell-based or functional assay; remark: listed apart in the source
human CD123 [5] = target: T1, human CD123; assay: cell-based or functional assay; remark: listed apart in the source

T1 sequence (P26951 19-378): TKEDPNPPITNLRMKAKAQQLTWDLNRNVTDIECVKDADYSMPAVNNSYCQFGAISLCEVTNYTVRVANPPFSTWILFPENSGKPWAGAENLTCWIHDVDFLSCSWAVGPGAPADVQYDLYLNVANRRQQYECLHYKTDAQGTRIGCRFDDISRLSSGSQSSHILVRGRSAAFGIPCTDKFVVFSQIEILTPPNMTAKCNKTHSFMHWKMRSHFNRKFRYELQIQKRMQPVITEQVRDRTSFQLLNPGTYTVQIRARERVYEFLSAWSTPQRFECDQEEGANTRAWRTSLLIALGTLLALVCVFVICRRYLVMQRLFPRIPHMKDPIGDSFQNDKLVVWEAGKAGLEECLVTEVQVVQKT

B1: murine 7G3 antibody (antibody, V domains shown)
VH: EVQLQQSGPELVKPGASVKMSCKASGYTFTDYYMKWVKQSHGKSLEWIGDIIPSNGATFYNQKFKGKATLTVDRSSSTAYMHLNSLTSEDSAVYYCTRSHLLRASWFAYWGQGTLVTVSA
VL: DFVMTQSPSSLTVTAGEKVTMSCKSSQSLLNSGNQKNYLTWYLQKPGQPPKLLIYWASTRESGVPDRFTGSGSGTDFTLTISSVQAEDLAVYYCQNDYSYPYTFGGGTKLEIKR
notes: Murine monoclonal antibody; also called m7G3
EC50 (human CD123 [1]): 4.3 nM
Kd (human CD123 [2]): 2.7 nM
Kd (cynomolgus CD123): 4.6 nM

B2: Chimeric 7G3 (antibody, V domains shown)
VH: B1 VH
VL: B1 VL
EC50 (human CD123 [1]): 2 nM
Kd (human CD123 [2]): 2.7 nM
Kd (cynomolgus CD123): 4.7 nM

B3: h7G3EC-SGD-1910 (antibody, human IgG1, kappa, V domains shown)
VH: QVQLVQSGAEVKKPGASVKMSCKASGYTFTDYYMKWVKQAPGQGLEWIGDIIPSNGATFYNQKFKGKATLTVDRSISTAYMHLNRLRSDDTAVYYCTRSHLLRASWFAYWGQGTLVTVSS
VL: DFVMTQSPDSLAVSLGERATINCKSSQSLLNSGNQKNYLTWYLQKPGQPPKLLIYWASTRESGVPDRFSGSGSGTDFTLTISSLQAEDVAVYYCQNDYSYPYTFGQGTKLEIKR
modifications: SGD-1910 PBD drug-linker on the thiol of Cys 239 (EU index); average drug load about 2 per antibody
IC50, in vitro cytotoxicity (Annexin V/PI flow cytometry), primary AML sample FH016 (human CD123 [3]): 1.4 ng/mL
IC50, in vitro cytotoxicity (Annexin V/PI flow cytometry), primary AML sample FH018 (human CD123 [3]): 0.12 ng/mL
IC50, in vitro cytotoxicity (Annexin V/PI flow cytometry), primary AML sample FH019 (human CD123 [3]): > 2.5 ng/mL
IC50, in vitro cytotoxicity (Annexin V/PI flow cytometry), primary AML sample FH020 (human CD123 [3]): 2.5 ng/mL
IC50, in vitro cytotoxicity (Annexin V/PI flow cytometry), primary AML sample FH021 (human CD123 [3]): 1.6 ng/mL
IC50, in vitro cytotoxicity (Annexin V/PI flow cytometry), primary AML sample FH022 (human CD123 [3]): 0.56 ng/mL
IC50, in vitro cytotoxicity (Annexin V/PI flow cytometry), primary AML sample FH023 (human CD123 [3]): 0.06 ng/mL
IC50, in vitro cytotoxicity (Annexin V/PI flow cytometry), primary AML sample FH024 (human CD123 [3]): 2 ng/mL
IC50, in vitro cytotoxicity (Annexin V/PI flow cytometry), primary AML sample FH025 (human CD123 [3]): 6.5 ng/mL
IC50, in vitro cytotoxicity (Annexin V/PI flow cytometry), primary AML sample FH026 (human CD123 [3]): 0.22 ng/mL
IC50, in vitro cytotoxicity (Annexin V/PI flow cytometry), primary AML sample FH027 (human CD123 [3]): > 2.5 ng/mL
IC50, in vitro cytotoxicity (Annexin V/PI flow cytometry), primary AML sample FH028 (human CD123 [3]): 2 ng/mL
IC50, in vitro cytotoxicity (Annexin V/PI flow cytometry), primary AML sample FH029 (human CD123 [3]): 0.46 ng/mL
IC50, in vitro cytotoxicity (Annexin V/PI flow cytometry), primary AML sample FH034 (human CD123 [3]): 0.22 ng/mL
IC50, in vitro cytotoxicity (Annexin V/PI flow cytometry), primary AML sample FH036 (human CD123 [3]): 0.16 ng/mL
IC50, in vitro cytotoxicity (Annexin V/PI flow cytometry), primary AML sample FH037 (human CD123 [3]): 0.68 ng/mL
IC50, in vitro cytotoxicity (Annexin V/PI flow cytometry), primary AML sample FH038 (human CD123 [3]): 0.18 ng/mL
IC50, in vitro cytotoxicity (CelltiterGlo, 96 h), GDM-1 AML cells (human CD123 [4]): 3.5 ng/mL
IC50, in vitro cytotoxicity (CelltiterGlo, 96 h), HNT-34 AML cells (human CD123 [4]): 0.35 ng/mL
IC50, in vitro cytotoxicity (CelltiterGlo, 96 h), KG1-INV AML cells (human CD123 [4]): 0.6 ng/mL
IC50, in vitro cytotoxicity (CelltiterGlo, 96 h), KG-1 AML cells (human CD123 [4]): 0.8 ng/mL
IC50, in vitro cytotoxicity (CelltiterGlo, 96 h), Kasumi-1 AML cells (human CD123 [4]): 1 ng/mL
IC50, in vitro cytotoxicity (CelltiterGlo, 96 h), MV4-11 AML cells (human CD123 [4]): 0.02 ng/mL
IC50, in vitro cytotoxicity (CelltiterGlo, 96 h), Molm-13 AML cells (human CD123 [4]): 0.08 ng/mL
IC50, in vitro cytotoxicity (CelltiterGlo, 96 h), NOMO-1 AML cells (human CD123 [4]): 38 ng/mL
IC50, in vitro cytotoxicity (CelltiterGlo, 96 h), SKM-1 AML cells (human CD123 [4]): 2.5 ng/mL
IC50, in vitro cytotoxicity (CelltiterGlo, 96 h), TF1a AML cells (human CD123 [4]): > 1000 ng/mL
IC50, in vitro cytotoxicity (CelltiterGlo, 96 h), THP-1 AML cells (human CD123 [4]): 24 ng/mL
mean IC50, in vitro cytotoxicity, responsive CD123-positive AML cell lines (human CD123 [5]): 7 ng/mL
mean IC50, in vitro cytotoxicity, responsive primary AML samples (human CD123 [5]): 1 ng/mL

B4: h7G3EC (antibody, human IgG1, kappa, V domains shown)
VH: B3 VH
VL: B3 VL
notes: EC means cysteine at position 239 (EU index) of the IgG1 heavy chain; Unconjugated antibody; also called humanized 7G3 with S239C
Kd (human CD123 [2]): 2.7 nM
Kd (cynomolgus CD123): 6.6 nM

B5: HCLA (antibody, V domains shown)
VH: B3 VH
VL: B3 VL
notes: also called lead humanized 7G3 antibody; vHC/vLA
EC50 (human CD123 [1]): 2.6 nM

B6: h7G3, G1 (antibody, V domains shown)
VH: B3 VH
VL: B3 VL
notes: also called humanized 7G3, IgG1
Kd (human CD123 [2]): 2.7 nM
Kd (cynomolgus CD123): 5.3 nM

Reference: US20180169261A1 (Seagen, published 2018)
